“And” between values parts separate entries of the source, which are not always exact repeats. Equal entries are not always repeated.
T1: MPP5 PDZ domain (residues 238-336) (human, UniProt Q8N3R9 238-336)
T1 sequence: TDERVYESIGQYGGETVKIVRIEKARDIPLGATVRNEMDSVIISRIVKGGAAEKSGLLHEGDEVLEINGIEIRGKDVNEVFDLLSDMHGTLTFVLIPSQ

T2: LNX2 PDZ2 domain (residues 334-426) (human, UniProt Q8N448 334-426)
T2 sequence: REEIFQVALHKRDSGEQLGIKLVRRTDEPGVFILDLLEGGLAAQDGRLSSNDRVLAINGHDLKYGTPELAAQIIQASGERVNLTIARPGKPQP

B1: ZO-1 PDZ2 domain (residues 184-264) (domain or fragment)
chain: PTKVTLVKSRKNEEYGLRLASHIFVKEISQDSLAARDGNIQEGDVVLKINGTVTENMSLTDAKTLIERSKGKLKMVVQRDE

How the values were obtained:
[1] = molecular target: MLLT4 PDZ domain (residues 961-1056) (human) (UniProt P55196); experiment: MST
AUC = molecular target: the molecule itself; experiment: AUC
[2] = molecular target: T1, MPP5 PDZ domain (residues 238-336); experiment: MST
[3] = molecular target: PARD3 PDZ3 domain (residues 582-685) (human, UniProt Q8TEW0 582-685); experiment: MST
[4] = molecular target: B1; experiment: MST
[5] = molecular target: T2, LNX2 PDZ2 domain (residues 334-426); experiment: MST

Chain of PARD3 PDZ3 domain (residues 582-685) (Q8TEW0 582-685): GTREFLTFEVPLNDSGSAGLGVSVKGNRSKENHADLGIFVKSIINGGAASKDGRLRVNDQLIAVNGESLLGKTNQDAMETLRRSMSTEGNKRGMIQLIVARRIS

With “C-terminal SARS-CoV-2-E PBM peptide (12-mer, original strain)” the Kd [1] was 569 µM.

With B1 the “stoichiometry N” value (AUC) was 2 and ~4.

NLNSSRVPDLLV [C-terminal SARS-CoV-2-E PBM peptide (12-mer, original strain)] was tested, and the Kd [2] was 30 µM, the Kd [3] was 341 µM and the Kd [4] was 15 µM. For the same molecule, the Kd [5] was 289 µM.
